This note sets out measurements from the supplement of paper PMC9170038.

This series deals with MS2 coat protein. Nature of the series: apparent KD of MS2 coat protein; higher = weaker reporter binding. The conditions noted are these: Eterna round: R107. Summed up: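 SNAP-549-labelled MS2 coat protein was titrated onto designed RNA switches that had been transcribed on-chip from Illumina sequencing clusters. Amounts doubled from 0.7 or 1.5 nM to 3 µM in 100 mM Tris-HCl pH 7.5, 80 mM KCl, 4 mM MgCl2, with constant ligand or without. Apparent KD is the median per design of normalised cluster binding-curve fits.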

The mark [1] stands for this setting: input ligand: theophylline 20 uM.
Where [2] appears, read: input ligand: tryptophan 2.4 mM.
Where [3] appears, read: input ligand: theophylline 2 mM.

Consider “CCUAUUCCUACGGAUACCAGACGAUCCGUGGCGUGUGUGAACAUGAGGAUCACCCAUGUAGUCCCUUGGCAGCCGAUGCGGGUAA [theeternabot_exclusion_MS2_Theo_B_10]”, for which the “apparent KD of MS2 coat protein” value was found to be 37.7 nM (input ligand: arginine 13.2 mM), 51.4 nM under setting [1] and 33.5 nM under setting [2].
In the case of “CCUCAUGAACAUGAGGAUCACCCAUGUACACGAGGACCGGUACGGCCGCCACUCGAAUAAGCUAAAUAUAAAUAAUAAUAAUAGC [5' end split MS2]”, the “apparent KD of MS2 coat protein” value is 18.4 nM (input ligand: arginine 13.2 mM), 18.3 nM under setting [1] and 16.8 nM under setting [3].
On to “CGAUCUUUCGAAAGAAGGAUCGAGUCUGAUACCAGAGACGAAAGUCUCCCUUGGCAGCAGUGCCAACAUGAGGAUCACCCAUGUU [Theophylline A 10]”, for which the “apparent KD of MS2 coat protein” value is, setting by setting: (input ligand: arginine 13.2 mM) 16.2 nM; under setting [1], 19.1 nM; under setting [2], 15.8 nM.
Turning to “CGAUGCGCAUUAUCCCACUGGUAUGAGUCUCGAGGACCGGUACGGCCGCCACUCGCUACCGUACAUGAGGAUCACCCAUGUAUUA [theeternabot_exclusion_MS2_Trp_A_13]”, the “apparent KD of MS2 coat protein” value by setting is: (input ligand: arginine 13.2 mM) 23.7 nM; under setting [1], 38.8 nM; under setting [3], 35.9 nM.
“CGCACAGAGAAUGAUACCAGCGAGGAAGCGACAUGAGGAUCACCCAUGUGCGAAUGAUCCCGCCCUUGGCAGCGUAAGUGAUCCC [ss-theoB-?]”: the “apparent KD of MS2 coat protein” value (input ligand: arginine 13.2 mM) is 59.3 nM, the “apparent KD of MS2 coat protein” value under setting [1] stood at 154 nM and the “apparent KD of MS2 coat protein” value under setting [2] stood at 62.6 nM.
“CGCGGUUGAGAUGGGCCUUUGAUAAGUCUGCGAGGACCGGUACGGCCGCCACUCGAGGACAUGAGGAUCACCCAUGUACUUCGCG [Atriera]”: the “apparent KD of MS2 coat protein” value turned out to be 51.1 nM (input ligand: arginine 13.2 mM), 81 nM under setting [1] and 57.7 nM under setting [3].
In the case of “CGCUACAUAGCGGCCGCCACUGUCAUGGCUACGAUAGGUCACUCGUACAUGAGGAUCACCCAUGUCAGGACCGGGCUAUCCUCGC [theeternabot_exclusion_MS2_Trp_B_20]”, the “apparent KD of MS2 coat protein” value is 64.9 nM (input ligand: arginine 13.2 mM), 112 nM under setting [1] and 112 nM under setting [3].
In the case of “CGGUUGCCACAUGAGGAUCACCCAUGUGAAGGAGCGGCGAAUAAGCCAGGUAGGUCGCGCAUGAAUAAAUCAUGUUGGUGCCGAA [XArg-A 17 V2]”, the “apparent KD of MS2 coat protein” value is, setting by setting: (input ligand: arginine 13.2 mM) 25.6 nM; (input ligand: none) 39.7 nM; under setting [1], 65.1 nM; under setting [3], 68.5 nM; under setting [2], 33.4 nM.
In the case of “CGUCGAAACUGAAGGAGCGAGAUGACAACAUUGGGUCUAACAUGAGGAUCACCCAUGUAAUCUCAGGUAGGUCGCGGUGUCAACA [Exclusion Arginine B GF18]”, the “apparent KD of MS2 coat protein” value turned out to be 53.7 nM (input ligand: arginine 13.2 mM); 64.6 nM (input ligand: none); 86.3 nM under setting [1]; 120 nM under setting [3]; 63.9 nM under setting [2].
For the sequence “CUAAGAGCGGCGGCCGCCACUGGUAACCGAGAGGAGGAGCCUCUGACAUGAGGAUCACCCAUGUUCAGGACCGGGUCGUCUUAGA [#06 Same State - Tryptophan B]”, the “apparent KD of MS2 coat protein” value runs as follows: (input ligand: arginine 13.2 mM) 41.2 nM; (input ligand: none) 60.2 nM; under setting [1], 77.5 nM; under setting [3], 74.4 nM; under setting [2], 54.6 nM.
As for “CUAUUUAUAGCGGCCGCCACUUACUCAUGAGGUAACAACAUGAGGAUCACCCAUGUUUGAGGAUCAAGGACCGGGCUAUAGAUAG [AstrosSSTryB#11]”, the “apparent KD of MS2 coat protein” value turned out to be 36.7 nM (input ligand: arginine 13.2 mM); 27.5 nM (input ligand: none); 20.3 nM under setting [1]; 24.3 nM under setting [3]; 15 nM under setting [2].
On to “CUGACAGACUCGGCCGCCACUGAUAGUAGGACAUGAGGAUCACCCAUGUAAACAAACCUCAUAGCCAGGACCGGGAGUCACGAAG [Same State Tryptophan B GF 21]”, for which the “apparent KD of MS2 coat protein” value (input ligand: arginine 13.2 mM) came out at 31 nM; the “apparent KD of MS2 coat protein” value (input ligand: none) worked out at 45.6 nM; the “apparent KD of MS2 coat protein” value under setting [1] was determined as 57.1 nM; the “apparent KD of MS2 coat protein” value under setting [3] came out at 51.3 nM; the “apparent KD of MS2 coat protein” value under setting [2] turned out to be 24.9 nM.
For the sequence “CUGCCACAGAUAGAUACCAGAGGCGUGCAAGCUACAGCUCACAUGAGGAUCACCCAUGUUCUCCCUUGGCAGCUACGGUGUAAGG [theeternabot_exclusion_MS2_Theo_B_26]”, the “apparent KD of MS2 coat protein” value reads like this: (input ligand: arginine 13.2 mM) 17.1 nM; under setting [1], 24 nM; under setting [2], 19.4 nM.
